From the Immune Epitope Database (IEDB)

Columns and labels:
Assay in all cases: IEDB peptide-MHC binding, purified MHC/competitive/radioactivity; filed as Kd, often an IC50 or EC50 that approximates it; ≥ and ≤ were set here for values at or beyond the usual limits of such assays
HLA-A*31:01 = target: HLA-A*31:01
HLA-A*33:01 = target: HLA-A*33:01
HLA-A*11:01 = target: HLA-A*11:01
HLA-A*03:01 = target: HLA-A*03:01
HLA-A*68:01 = target: HLA-A*68:01
[1] = source organism: SARS coronavirus Tor2
[2] = source organism: Vaccinia virus WR
[3] = source organism: Mammarenavirus juninense
[4] = source organism: Mammarenavirus brazilense

PVVAAIITR
Kd (HLA-A*31:01; [1]): 1.24 µM | Kd (HLA-A*33:01; [1]): 7.79 µM | Kd (HLA-A*11:01; [1]): 1.79 µM | Kd (HLA-A*03:01; [1]): 11.2 µM | Kd (HLA-A*68:01; [1]): 0.269 µM

STRHPSKLR
Kd (HLA-A*31:01; [1]): 0.00974 µM | Kd (HLA-A*33:01; [1]): 0.246 µM | Kd (HLA-A*11:01; [1]): 3.21 µM | Kd (HLA-A*03:01; [1]): 0.44 µM | Kd (HLA-A*68:01; [1]): 0.101 µM

NTVVRDFENY
Kd (HLA-A*31:01; [2]): ≥ 70 µM | Kd (HLA-A*33:01; [2]): ≥ 21.7 µM | Kd (HLA-A*11:01; [2]): 0.52 µM | Kd (HLA-A*03:01; [2]): ≥ 39.7 µM | Kd (HLA-A*68:01; [2]): 0.235 µM

ISIYSRPKIK
Kd (HLA-A*31:01; [2]): 5.07 µM | Kd (HLA-A*33:01; [2]): 8.83 µM | Kd (HLA-A*11:01; [2]): 1.67 µM | Kd (HLA-A*03:01; [2]): 0.143 µM | Kd (HLA-A*68:01; [2]): 1.73 µM

SVVNARLRAK
Kd (HLA-A*31:01; [1]): 1.37 µM | Kd (HLA-A*33:01; [1]): ≥ 33.7 µM | Kd (HLA-A*11:01; [1]): 0.0899 µM | Kd (HLA-A*03:01; [1]): 0.0655 µM | Kd (HLA-A*68:01; [1]): 0.25 µM

NTILLSDKGK
Kd (HLA-A*31:01; [2]): ≥ 20.3 µM | Kd (HLA-A*33:01; [2]): 12.4 µM | Kd (HLA-A*11:01; [2]): 0.19 µM | Kd (HLA-A*03:01; [2]): 0.0966 µM | Kd (HLA-A*68:01; [2]): 0.00145 µM

KSLLLLNTR
Kd (HLA-A*31:01; [2]): 0.000627 µM | Kd (HLA-A*33:01; [2]): 1.16 µM | Kd (HLA-A*11:01; [2]): 0.114 µM | Kd (HLA-A*03:01; [2]): 0.689 µM | Kd (HLA-A*68:01; [2]): 16.9 µM

ASTTENAAY
Kd (HLA-A*31:01; [2]): ≥ 71.4 µM | Kd (HLA-A*33:01; [2]): 3.88 µM | Kd (HLA-A*11:01; [2]): 0.307 µM | Kd (HLA-A*03:01; [2]): 2.17 µM | Kd (HLA-A*68:01; [2]): 2.42 µM

IIVAGFSGK
Kd (HLA-A*31:01; [2]): 0.689 µM | Kd (HLA-A*33:01; [2]): 0.805 µM | Kd (HLA-A*11:01; [2]): 0.0254 µM | Kd (HLA-A*03:01; [2]): 0.0091 µM | Kd (HLA-A*68:01; [2]): 1.44 µM

IMLPESDLDK
Kd (HLA-A*31:01; [2]): 0.489 µM | Kd (HLA-A*33:01; [2]): ≥ 70 µM | Kd (HLA-A*11:01; [2]): 0.393 µM | Kd (HLA-A*03:01; [2]): 0.609 µM | Kd (HLA-A*68:01; [2]): 1.67 µM

GVSYEVFDDY
Kd (HLA-A*31:01; [2]): ≥ 70 µM | Kd (HLA-A*33:01; [2]): ≥ 70 µM | Kd (HLA-A*11:01; [2]): 0.504 µM | Kd (HLA-A*03:01; [2]): ≥ 70.1 µM | Kd (HLA-A*68:01; [2]): ≥ 70.2 µM

QALNSVANR
Kd (HLA-A*31:01; [2]): 0.012 µM | Kd (HLA-A*33:01; [2]): 0.104 µM | Kd (HLA-A*11:01; [2]): 0.845 µM | Kd (HLA-A*03:01; [2]): ≥ 20.2 µM | Kd (HLA-A*68:01; [2]): 0.0557 µM

LSAGVEFLK
Kd (HLA-A*31:01; [1]): 0.776 µM | Kd (HLA-A*33:01; [1]): 8.18 µM | Kd (HLA-A*11:01; [1]): 0.000171 µM | Kd (HLA-A*03:01; [1]): 0.00941 µM | Kd (HLA-A*68:01; [1]): 0.000244 µM

TQYNRYLALY
Kd (HLA-A*31:01; [1]): 0.283 µM | Kd (HLA-A*33:01; [1]): 1.61 µM | Kd (HLA-A*11:01; [1]): 1.57 µM | Kd (HLA-A*03:01; [1]): 0.266 µM | Kd (HLA-A*68:01; [1]): 0.0993 µM

DISKLTNFK
Kd (HLA-A*31:01; [2]): 5.48 µM | Kd (HLA-A*33:01; [2]): 0.048 µM | Kd (HLA-A*11:01; [2]): 0.338 µM | Kd (HLA-A*03:01; [2]): 0.781 µM | Kd (HLA-A*68:01; [2]): 0.00121 µM

TTFDAEYCR
Kd (HLA-A*31:01; [1]): 0.103 µM | Kd (HLA-A*33:01; [1]): 0.111 µM | Kd (HLA-A*11:01; [1]): 0.0761 µM | Kd (HLA-A*03:01; [1]): ≥ 33.8 µM | Kd (HLA-A*68:01; [1]): 0.00205 µM

TIERIFNAK
Kd (HLA-A*31:01; [2]): 0.24 µM | Kd (HLA-A*33:01; [2]): 1.98 µM | Kd (HLA-A*11:01; [2]): 0.00116 µM | Kd (HLA-A*03:01; [2]): 3.19 µM | Kd (HLA-A*68:01; [2]): 0.0198 µM

ASLKNTISK
Kd (HLA-A*31:01; [2]): 1.8 µM | Kd (HLA-A*33:01; [2]): ≥ 77.7 µM | Kd (HLA-A*11:01; [2]): 0.00521 µM | Kd (HLA-A*03:01; [2]): 0.00645 µM | Kd (HLA-A*68:01; [2]): 3.75 µM

LLKYAGLTIK
Kd (HLA-A*31:01; [2]): 1.61 µM | Kd (HLA-A*33:01; [2]): 14.5 µM | Kd (HLA-A*11:01; [2]): 0.162 µM | Kd (HLA-A*03:01; [2]): 0.0107 µM | Kd (HLA-A*68:01; [2]): 3.15 µM

TAVAKCNLNH
Kd (HLA-A*31:01; [3]): ≥ 70 µM | Kd (HLA-A*33:01; [3]): 9.99 µM | Kd (HLA-A*11:01; [3]): ≥ 69.7 µM | Kd (HLA-A*03:01; [3]): ≥ 70 µM | Kd (HLA-A*68:01; [3]): ≥ 70.1 µM

AISDYDYYR
Kd (HLA-A*31:01; [1]): 0.026 µM | Kd (HLA-A*33:01; [1]): 0.49 µM | Kd (HLA-A*11:01; [1]): 0.065 µM | Kd (HLA-A*03:01; [1]): 0.0865 µM | Kd (HLA-A*68:01; [1]): 0.118 µM

AVNTPVSMTY
Kd (HLA-A*31:01; [2]): 7.44 µM | Kd (HLA-A*33:01; [2]): ≥ 70 µM | Kd (HLA-A*11:01; [2]): 0.0207 µM | Kd (HLA-A*03:01; [2]): 0.0715 µM | Kd (HLA-A*68:01; [2]): 4.66 µM

IIKHIYEQY
Kd (HLA-A*31:01; [2]): 2.66 µM | Kd (HLA-A*33:01; [2]): ≥ 41.6 µM | Kd (HLA-A*11:01; [2]): 4.14 µM | Kd (HLA-A*03:01; [2]): 1.85 µM | Kd (HLA-A*68:01; [2]): 2.18 µM

KMSTDNAVY
Kd (HLA-A*31:01; [2]): 9.73 µM | Kd (HLA-A*33:01; [2]): ≥ 77.7 µM | Kd (HLA-A*11:01; [2]): 0.182 µM | Kd (HLA-A*03:01; [2]): 0.0434 µM | Kd (HLA-A*68:01; [2]): 11.6 µM

YIPGTSVIR
Kd (HLA-A*31:01; [2]): 0.664 µM | Kd (HLA-A*33:01; [2]): 2.9 µM | Kd (HLA-A*11:01; [2]): ≥ 77.9 µM | Kd (HLA-A*03:01; [2]): ≥ 78 µM | Kd (HLA-A*68:01; [2]): 0.0404 µM

PVDTEFINK
Kd (HLA-A*31:01; [2]): 12.7 µM | Kd (HLA-A*33:01; [2]): ≥ 41.8 µM | Kd (HLA-A*11:01; [2]): 0.0895 µM | Kd (HLA-A*03:01; [2]): 19.9 µM | Kd (HLA-A*68:01; [2]): 3.57 µM

NFSIIELPY
Kd (HLA-A*31:01; [2]): 6.32 µM | Kd (HLA-A*33:01; [2]): ≥ 35 µM | Kd (HLA-A*11:01; [2]): 1.07 µM | Kd (HLA-A*03:01; [2]): 0.716 µM | Kd (HLA-A*68:01; [2]): 3.44 µM

LQFTSLEIPR
Kd (HLA-A*31:01; [1]): 0.0305 µM | Kd (HLA-A*33:01; [1]): 1.21 µM | Kd (HLA-A*11:01; [1]): 0.85 µM | Kd (HLA-A*03:01; [1]): 0.804 µM | Kd (HLA-A*68:01; [1]): 0.402 µM

SCMVNHSTYY
Kd (HLA-A*31:01; [4]): 7.41 µM | Kd (HLA-A*33:01; [4]): 8.99 µM | Kd (HLA-A*11:01; [4]): 16.7 µM | Kd (HLA-A*03:01; [4]): 0.1 µM | Kd (HLA-A*68:01; [4]): 15.9 µM

ELQSVLVTTY
Kd (HLA-A*31:01; [2]): 16.1 µM | Kd (HLA-A*33:01; [2]): ≥ 61.8 µM | Kd (HLA-A*11:01; [2]): 0.603 µM | Kd (HLA-A*03:01; [2]): 2 µM | Kd (HLA-A*68:01; [2]): 1.48 µM

DIVNEHDIKY
Kd (HLA-A*31:01; [2]): ≥ 37.2 µM | Kd (HLA-A*33:01; [2]): ≥ 46.1 µM | Kd (HLA-A*11:01; [2]): 12.6 µM | Kd (HLA-A*03:01; [2]): 7.03 µM | Kd (HLA-A*68:01; [2]): 4.61 µM

VFSFWLLCK
Kd (HLA-A*31:01; [2]): 0.872 µM | Kd (HLA-A*33:01; [2]): 4.13 µM | Kd (HLA-A*11:01; [2]): 0.0119 µM | Kd (HLA-A*03:01; [2]): 0.281 µM | Kd (HLA-A*68:01; [2]): 0.298 µM

NIRLTDTEYR
Kd (HLA-A*31:01; [2]): 0.059 µM | Kd (HLA-A*33:01; [2]): 0.157 µM | Kd (HLA-A*11:01; [2]): 17.5 µM | Kd (HLA-A*03:01; [2]): ≥ 70.1 µM | Kd (HLA-A*68:01; [2]): 0.00139 µM

PMPYMISTY
Kd (HLA-A*31:01; [2]): ≥ 34.9 µM | Kd (HLA-A*33:01; [2]): ≥ 77.7 µM | Kd (HLA-A*11:01; [2]): ≥ 42.1 µM | Kd (HLA-A*03:01; [2]): ≥ 45.3 µM | Kd (HLA-A*68:01; [2]): 1.34 µM
